Assay results published in the domain aggregation screens of Martell et al. (2025).

Test: soluble fraction after stress (log2 fold change); higher = more stays soluble; pooled small domains, quantitative proteomics
Details: stress: 50 degC
Method in brief: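 Custom libraries of small protein domains were pooled and measured in a high-throughput format, with quantitative proteomics as the read-out. Each library was stressed at 50°C. The value is the log2 fold change in the amount of each protein that stays soluble after stress, used as a measure of aggregation propensity; higher values mean more of the protein stays soluble.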

Sequence	soluble fraction (log2)
HMVKSIDEIYNEAVKSLANEDYDAAKKLFNYLINNFSDPDKFPLSLFWLAEIEFSSSNFDASKNYYMQ	0.0746
HMDSAVLQKHLVKLIELHAPIKARNLAKILADEFGKHVDRSAVNSALYSLKAERKVEVNSSYEWSLD	-2.11
HMTVSRRYTENEMETALKAYLATHNFISRRDMQQEFALTIYSARKWLNHFVDVGLIERIGLKNAPIYKL	-0.4
HMDPDAIVSKGQLGALNNAIGRFIAQGGSQTVVDKGIAKRNPNAKKPADLTNSQAESLEAAILKILNG	0.515
HMGVGIAEAMKHVADEDYGDLSSEFQRIFSAVDGGSTLGDAVRAQMRATSSAGLRRTLSVLAMSVE	0.208
HMQVPVNVSMEILDWVIAHIKIDALPNQIREYLNLWVNGEKEPTFNQVEKVSKATGIPLGYFFLQTPPIED	-1.66
HMVRKIRARLVLQLRAEGLSGRAIAGSQGMSRKSVTAVLDAADRAGIGWDEIAERSEGEVYALLFPGRG	-1.34
HMDDSVTFSEFVRMVDSGQVESVRITGNEVTGSDSTGNTFRTFVPPQYEGLVNRLVERDVAVTAEE	0.0594
HMVRDPYELLEVPREATPDEIKSAFRKLAARHHPDRNPDDPGAQERFKEINAAYQLLSDPQKRAMFDRFGA	0.169
HMGEPLTVVAAAGGDRLDRWLAGQLAGRSRAEIQRWIEAGQVTLAGRSLKASYRLSAGDAIDVAIPPPE	-0.129
HMRASQGRNELILSLLRGHELSILELLEGLEKQGVRVARPTLTKDLNELVSRGSVEATAPPRSKNRTYRIP	-0.612
HMGIDRPLFTLAQFARQIGEQVKISLSLPQDGRRRLQGKVLSVGESGIVLDVDGREFTVAIGNVDKARL	-1.24
HMQKKEVTVPEVRSKSLKEAAQILSEQNLKYETEPVNVENPDMVVIDQFPKPGGKISEQSVIILYLR	≥ 0.62
HMEKVDAISQSILDVLKKNNGYLAVTDKSDPDEIYGLFQISKKTFKKAIGSLYRDRLISIEEEGIRLR	0.116
HMEQISVPIFTNDELVTFARSYSGELGYKIDDMAVLALYNRISNIQRLDQATTLTEVKDIVDEAVAKSE	-0.0661
HMKEPFETMPDVMDAKQIAEALQISKAGAYNLLNSPDFPTLRIGGRKLVMKNELVEWLKSHTNRK	0.274
HMEDYYKEDYYTEVLKIPKEYIKGFQYYLIEDAEFVNALNAKNKTMTSFLAKKLASDYIEIIHQEQ	-1.46
HMAKIKVFELKNQINSLIKNKIESKDIIDFIETNFGVKKSHSSALEENEANFIKNYFVHADKA	0.195
HMKTQFGTIVKQLRERKGMDQKQLGEIVGVSDKTVSSWEINRTEPKMGIVQQLADYFGVSTDYLIKG	0.295

Sequence	soluble fraction (log2)
HMEKIKNLTVTEFNLIANKNPSGSYDRITREALLHIIHKLESSYEAHTDLERKLFYKFRKAKFNAL	-1.91
HMSIDNALLTLIGKTGTAQTVLRPSGKVVIGDEVYDAVTAGEFIDKGSAIVVTRVEATQLYVEASEA	0.0555
HMNNYNDSVQKIINYIADNLNENLSVRKLADKMPMSVSHFNRVFQKYTGDSPYAYVMAMRIKKAKYL	0.0162
HMIMGTIEKRGPFSFRIGVQVRLPDGSWEWIRDTIHVSPDLSARAARKQAEMALARLEADVYEGKRKPD	-0.878
HMKRDYELPAFIETYLKKNHVAIDTKSAAMIAEHIGADLSRLISELDKVMISLPDDDRRVTPDVVEREI	-0.00533
HMIRDTTMYPVSVNGKKRYEWTVSKSISDDELKQQVLELEEIKKWIEGHEIKKLIFVPGRAINIV	-0.69
HMGSWDDFFNAIRLDNPNTLQALLQRGFDPNTVDQQGTPALMRALQEQSYRAAEVLADHPQI	-0.459
HMAATSTGFPGVEVRGNSIRVFFMYKRDRHAHTLPLEPTRNNIKHADQLRSAALFALRNGTYNEADFFPHS	-1.53
HMTGIELLSHREHQVYDLLTQGRTVTEIGAQLNLAPNTVSTYRARILEKTGTKNDVELALYAQRH	-0.209
HMVKLDDLTGQDKASAEAAISNLGLKYSEQQEYSDEIEEGKVTRTDPGAGSTSLKAGDTVTVYISRGPE	0.21
HMPPHGHIVELLPEQDFGRIETGDGRLVYFHRNSVLDGDFAQLAVGDAVRFAEEMGERGPQASSVHVE	0.0967
HMRRADRLLQLIQILRRHRRPVTGDVMARELEVSLRTVYRDIATLTIEGVPIRGEAGVGYVLGEGY	-2.39
HMDKDTFGEFENVKLTEEEYNKLVEKLGENNTKLMIEELSTGIASKGYKYKSHYATILSWSRRRVTKLQER	0.0444
HMTQSPLHWSHRPIDLSELLTYLDRDGAFVYASGHKAPFTEVVRGFEHLLNIRLGDPRDVKRSVLQR	-0.369
HMLELDRTNLLGVFGSKSNPYALIMLSNGEMLKLSIGDQFLGWRVYAIDQTTVHVQNGKNQEILRIP	-1.13
HMFKINQKVKLIAPLPYLKTSENMPMLRPPDLVAIDEIGEVLSLKSPETVEVRFRRGSFLIDIDKLEKVD	-0.219
HMVVMKGKVKWFNKNKGYGFIITDDNKEYFVHWKSIVTNSPRELKVLEQDELVTFDLMETDKGIQAINII	-2.14
HMLKLYILTDGKNYVMDDPIHPGRVMYSTSPVNAKKFTFKQARALLNNKSKKLSWIRSFNMVDDSSGEKI	-0.692
